Results published in patent US20200276302A1 (OSAKA UNIVERSITY, published 2020).
Each block holds one binder with its values, some of them ahead of it.

What was measured:
[1] = target: soluble mouse PlexinA1 protein (mouse, UniProt P70206 28-1242); assay: BLI (OctetRED384), antibody on Protein G biosensor, mouse PlexinA1 at 260 nM
Method: Note that the L chains of the antibodies derived from the human antibody naive library were not chimerized.
Specifically, the antibodies adjusted to 10 µg/mL by 10× diluted HBS-EP+(GE healthcare, BR-1006-69) were immobilized onto Protein G biosensors (ForteBIO), and human and mouse PlexinA1 adjusted to 260 nM with HBS-EP+ were applied thereto. The Protein G biosensors were regenerated using 10 mmol/L Glycine-HCl, pH 1.5 (GE Healthcare, BR-1003-54). After the measurement, analytical software Data analysis 7.0 (ForteBIO) was used to compute amounts of binding (FIG. 5). […] In FIG. 5, the vertical axis represents amounts of binding to human and mouse PlexinA1.

[2] = target: T1, mouse PlexinA1 recombinant protein expressed on Ba/F3 cells (mouse, UniProt P70206 25-1290); assay: cell ELISA on mouse PlexinA1-expressing Ba/F3 cells against Ba/F3 cells
T1 construct: also called Mouse PlexinA1/BaF3; mouse PlexinA1-expressing cell line
Method: The antibodies obtained above were subjected to cell ELISA by the following procedure. Initially, 384-well plates were prepared, and mouse PlexinA1-expressing Ba/F3 cells and Ba/F3 cells (see Example 11) were each captured onto the bottom of different wells. After washing each well of the plates with PBS, the prepared antibodies were added at 20 μL/well, and the mixture was allowed to stand at room temperature for 1 hour. Then, each well was washed with 0.05% Tween 20-PBS, HRP-labeled anti-rabbit IgG antibody (Betyl, A120-101P) diluted 10000 times with 2% FBS-PBS was added at 20 μL/well, and the mixture was allowed to stand at room temperature for 1 hour. After washing each well of the plates with 0.05% Tween 20-PBS, the substrate solution (ABTS peroxidase substrate system) was dispensed at 20 μL/well to develop color for 1 hour at room temperature. Then, binding of the antibodies to mouse PlexinA1 was confirmed by measuring absorbance at 405 nm using SpectraMax from Molecular Devices, LLC.

Sequence of soluble mouse PlexinA1 protein (P70206 other isoform, or with tags, fused parts or gaps limits assumed): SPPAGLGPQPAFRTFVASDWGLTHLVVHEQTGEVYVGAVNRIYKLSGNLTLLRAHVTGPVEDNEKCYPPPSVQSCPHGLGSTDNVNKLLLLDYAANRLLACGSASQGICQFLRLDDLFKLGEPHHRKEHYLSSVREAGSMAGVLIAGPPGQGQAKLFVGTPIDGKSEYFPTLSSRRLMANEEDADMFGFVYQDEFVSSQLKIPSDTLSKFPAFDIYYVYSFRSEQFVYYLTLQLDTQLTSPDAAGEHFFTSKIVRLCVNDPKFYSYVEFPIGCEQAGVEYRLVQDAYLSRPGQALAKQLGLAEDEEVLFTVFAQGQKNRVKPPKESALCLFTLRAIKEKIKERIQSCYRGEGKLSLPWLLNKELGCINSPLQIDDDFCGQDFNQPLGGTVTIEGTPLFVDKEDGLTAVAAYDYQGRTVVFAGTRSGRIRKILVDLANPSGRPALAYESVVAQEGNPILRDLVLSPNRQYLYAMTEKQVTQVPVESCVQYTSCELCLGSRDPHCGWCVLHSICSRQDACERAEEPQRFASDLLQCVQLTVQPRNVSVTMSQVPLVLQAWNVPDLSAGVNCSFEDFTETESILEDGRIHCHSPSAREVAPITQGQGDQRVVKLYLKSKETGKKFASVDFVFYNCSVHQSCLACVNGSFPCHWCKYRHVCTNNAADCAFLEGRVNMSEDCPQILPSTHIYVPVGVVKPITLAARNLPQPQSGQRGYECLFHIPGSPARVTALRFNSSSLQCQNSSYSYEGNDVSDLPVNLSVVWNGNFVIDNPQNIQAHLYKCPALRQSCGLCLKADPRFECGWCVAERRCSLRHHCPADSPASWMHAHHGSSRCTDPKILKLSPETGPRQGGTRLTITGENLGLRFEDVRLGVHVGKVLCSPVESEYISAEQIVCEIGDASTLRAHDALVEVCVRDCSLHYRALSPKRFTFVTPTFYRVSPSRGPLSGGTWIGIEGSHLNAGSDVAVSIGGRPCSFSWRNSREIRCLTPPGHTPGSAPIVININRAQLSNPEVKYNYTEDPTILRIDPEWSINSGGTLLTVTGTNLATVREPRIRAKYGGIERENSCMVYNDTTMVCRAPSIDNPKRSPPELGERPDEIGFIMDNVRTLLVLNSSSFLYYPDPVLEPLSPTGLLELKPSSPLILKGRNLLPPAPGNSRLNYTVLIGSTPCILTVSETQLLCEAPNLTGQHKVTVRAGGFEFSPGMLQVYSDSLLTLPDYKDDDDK
T1 sequence (P70206 other isoform, or with tags, fused parts or gaps limits assumed): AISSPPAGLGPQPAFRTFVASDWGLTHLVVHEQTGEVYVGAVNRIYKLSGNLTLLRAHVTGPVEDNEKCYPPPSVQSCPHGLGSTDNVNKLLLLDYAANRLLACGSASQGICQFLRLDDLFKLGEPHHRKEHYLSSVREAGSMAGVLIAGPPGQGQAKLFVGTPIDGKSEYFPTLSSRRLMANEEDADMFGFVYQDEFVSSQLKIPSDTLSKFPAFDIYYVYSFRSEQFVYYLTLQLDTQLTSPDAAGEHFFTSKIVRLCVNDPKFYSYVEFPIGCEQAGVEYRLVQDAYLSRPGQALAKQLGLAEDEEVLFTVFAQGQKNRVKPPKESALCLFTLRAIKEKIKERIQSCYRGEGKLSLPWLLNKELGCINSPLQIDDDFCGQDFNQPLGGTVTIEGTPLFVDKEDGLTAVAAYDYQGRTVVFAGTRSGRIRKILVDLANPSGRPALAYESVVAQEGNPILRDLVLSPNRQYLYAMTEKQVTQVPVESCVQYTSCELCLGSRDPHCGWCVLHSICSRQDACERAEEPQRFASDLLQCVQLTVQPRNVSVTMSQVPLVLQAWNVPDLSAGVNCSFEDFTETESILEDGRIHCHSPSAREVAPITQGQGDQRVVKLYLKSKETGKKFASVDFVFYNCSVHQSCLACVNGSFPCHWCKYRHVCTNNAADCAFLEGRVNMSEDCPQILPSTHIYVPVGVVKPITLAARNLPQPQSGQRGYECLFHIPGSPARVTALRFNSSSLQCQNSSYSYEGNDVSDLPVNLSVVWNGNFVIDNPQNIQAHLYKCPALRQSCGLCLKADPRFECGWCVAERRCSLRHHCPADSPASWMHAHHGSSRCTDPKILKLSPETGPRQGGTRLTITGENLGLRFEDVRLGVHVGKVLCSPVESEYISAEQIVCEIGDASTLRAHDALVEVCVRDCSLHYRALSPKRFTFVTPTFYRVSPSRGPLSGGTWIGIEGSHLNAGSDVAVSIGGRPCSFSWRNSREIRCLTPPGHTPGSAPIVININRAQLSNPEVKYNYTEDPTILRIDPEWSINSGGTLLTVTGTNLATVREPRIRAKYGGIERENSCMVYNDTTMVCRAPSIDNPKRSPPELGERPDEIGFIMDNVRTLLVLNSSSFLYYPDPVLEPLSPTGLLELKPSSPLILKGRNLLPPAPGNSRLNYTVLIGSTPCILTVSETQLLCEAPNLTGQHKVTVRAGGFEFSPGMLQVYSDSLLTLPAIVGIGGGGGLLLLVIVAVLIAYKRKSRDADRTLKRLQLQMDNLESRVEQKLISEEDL

binding result [1]: binds
B1: mouse chimeric anti-mouse PlexinA1 antibody PXB361b-mFc (antibody, mouse IgG1, kappa)
heavy: QSLEESGGDLVKPEGSLTLSCTASGFTISSSYWICWVRQAPGKGLEWIACIYVGSGDGYTYYASWAKGRFTISKTSSTTVTLRMTSLTAADTATYFCARGGDGGVGGFDFFDPWGPGTLVTVSSAKTTPPSVYPLAPGSAAQTNSMVTLGCLVKGYFPEPVTVTWNSGSLSSGVHTFPAVLQSDLYTLSSSVTVPSSTWPSETVTCNVAHPASSTKVDKKIVPRDCGCKPCICTVKEVSKVFIFPPKPKDVLTITLTPKVTCVVVDISKDDPEVQFSWFVDDVEVHTAQTQPREEQFNSTFRSVSELPIMHQDWLNGKEFKCRVNSAAFPAPIEKTISKTKGRPKAPQVYTIPPPKEQMAKDKVSLTCMITDFFPEDITVEWQWNGQPAENYKNTQPIMDTDGSYFVYSKLNVQKSNWEAGNTFTCSVLHEGLHNHHTEKSLSHSPGK
light: DVVLTQTPASVSEPVGGTVTIKCQATESINRNCAWYQQKPGQPPKLLIYRASTLASGVPSRFKGSGSGTEFTLTISDLECADAATYYCQCTDYGTYYVAFGGGTEVVVKRADAAPTVSIFPPSSEQLTSGGASVVCFLNNFYPKDINVKWKIDGSERQNGVLNSWTDQDSKDSTYSMSSTLTLTKDEYERHNSYTCEATHKTSTSPIVKSFNRNEC
notes: Rabbit variable regions on mouse IgG1 heavy and mouse light chain constant regions; Antagonist antibody

binding result [2]: binds
B2: anti-mouse PlexinA1 antibody PXB361b (antibody)
heavy: QSLEESGGDLVKPEGSLTLSCTASGFTISSSYWICWVRQAPGKGLEWIACIYVGSGDGYTYYASWAKGRFTISKTSSTTVTLRMTSLTAADTATYFCARGGDGGVGGFDFFDPWGPGTLVTVSSGQPKAPSVFPLAPCCGDTPSSTVTLGCLVKGYLPEPVTVTWNSGTLTNGVRTFPSVRQSSGLYSLSSVVSVTSSSQPVTCNVAHPATNTKVDKTVAPSTCSKPMCPPPELLGGPSVFIFPPKPKDTLMISRTPEVTCVVVDVSQDDPEVQFTWYINNEQVRTARPPLREQQFNSTIRVVSTLPIAHQDWLRGKEFKCKVHNKALPAPIEKTISKARGQPLEPKVYTMGPPREELSSRSVSLTCMINGFYPSDISVEWEKNGKAEDNYKTTPTVLDSDGSYFLYSKLSVPTSEWQRGDVFTCSVMHEALHNHYTQKSISRSPGK
light: DVVLTQTPASVSEPVGGTVTIKCQATESINRNCAWYQQKPGQPPKLLIYRASTLASGVPSRFKGSGSGTEFTLTISDLECADAATYYCQCTDYGTYYVAFGGGTEVVVKGDPVAPTVLIFPPAADQVATGTVTIVCVANKYFPDVTVTWEVDGTTQTTGIENSKTPQNSADCTYNLSSTLTLTSTQYNSHKEYTCKVTQGTTSVVQSFNRGDC
notes: Antagonist antibody

binding result [1]: binds
B3: mouse chimeric human/mouse cross-reactive PlexinA1 antibody 359B2-2-3-6-mFc (antibody, mouse IgG2a, lambda, V domains shown)
VH: QVQLVQSGAEVKKPGASVKVSCKASGYTFTSYYMHWVRQAPGQGLEWMGIINPSGGSTSYAQKFQGRVTMTRDTSTSTVYMELSSLRSEDTAVYYCARAPGHYYYGMDVWGQGTTVTVSS
VL: SYELTQPPSVSVSPGQTASITCSGDKLEDKYASWYQLKPGHSPVLVIYQDSKRPSGIPERFSGSNSGNTATLTISGTQAMDEADYYCRAWDSNTGDVVFGGGTKLTVLR
notes: Mouse IgG2a heavy chain constant region; human light chain kept

binding result [2]: binds
B4: anti-mouse PlexinA1 antibody PXB693 (antibody)
heavy: QSVEESGGRLVTPGTPLTLTCTVSGFSLSSSAMTWVRQAPGKGLEWIGIINNSNIAAYASWTKGRFTISKTSTTVDLKITSPIIEDTATYFCARGDVGTTHYFNIWGPGTLVTVSSGQPKAPSVFPLAPCCGDTPSSTVTLGCLVKGYLPEPVTVTWNSGTLTNGVRTFPSVRQSSGLYSLSSVVSVTSSSQPVTCNVAHPATNTKVDKTVAPSTCSKPMCPPPELLGGPSVFIFPPKPKDTLMISRTPEVTCVVVDVSQDDPEVQFTWYINNEQVRTARPPLREQQFNSTIRVVSTLPIAHQDWLRGKEFKCKVHNKALPAPIEKTISKARGQPLEPKVYTMGPPREELSSRSVSLTCMINGFYPSDISVEWEKNGKAEDNYKTTPTVLDSDGSYFLYSKLSVPTSEWQRGDVFTCSVMHEALHNHYTQKSISRSPGK
light: AAVLTQTPSPVSAVVGGTVSISCQSSKSVYNNNWLSWFQQKPGQPPKLLIYGASTLASGVPSRFKGSGSGTQFTLAISDVQCDDAATYYCAGGYINSDNFAFGGGTEVVVKGDPVAPTVLIFPPAADQVATGTVTIVCVANKYFPDVTVTWEVDGTTQTTGIENSKTPQNSADCTYNLSSTLTLTSTQYNSHKEYTCKVTQGTTSVVQSFNRGDC

binding result [1]: binds
B5: mouse chimeric anti-mouse PlexinA1 antibody PXB693-mFc (antibody, mouse IgG2a, kappa)
heavy: QSVEESGGRLVTPGTPLTLTCTVSGFSLSSSAMTWVRQAPGKGLEWIGIINNSNIAAYASWTKGRFTISKTSTTVDLKITSPIIEDTATYFCARGDVGTTHYFNIWGPGTLVTVSSAKTTAPSVYPLAPVCGDTTGSSVTLGCLVKGYFPEPVTLTWNSGSLSSGVHTFPAVLQSDLYTLSSSVTVTSSTWPSQSITCNVAHPASSTKVDKKIEPRGPTIKPCPPCKCPAPNLRRGPKVFIFPPKIKDVLMISLSPIVTCVVVDVSEDDPDVQISWFVNNVEVHTAQTQTHREDYNSTLRVVSALPIQHQDWMSGKEFKCKVNNKDLPAPIERTISKPKGSVRAPQVYVLPPPEEEMTKKQVTLTCMVTDFMPEDIYVEWTNNGKTELNYKNTEPVLDSDGSYFMYSKLRVEKKNWVERNSYSCSVVHEGLHNHHTTKSFSRTPGK
light: AAVLTQTPSPVSAVVGGTVSISCQSSKSVYNNNWLSWFQQKPGQPPKLLIYGASTLASGVPSRFKGSGSGTQFTLAISDVQCDDAATYYCAGGYINSDNFAFGGGTEVVVKRADAAPTVSIFPPSSEQLTSGGASVVCFLNNFYPKDINVKWKIDGSERQNGVLNSWTDQDSKDSTYSMSSTLTLTKDEYERHNSYTCEATHKTSTSPIVKSFNRNEC
notes: Rabbit variable regions on mouse IgG2a heavy and mouse light chain constant regions; Agonist antibody
